Source: patent publication US20140087995A1 (published 2014)
Numbered stars: 1 amine (or outer) side, 2 acyl side, 3 side chain; on linkers, the order of the positions; unused ones are H or OH. Bridge positions count the residues as written; N and C are the ends. Side chains are listed from the residue outwards. Ends that are not written are not given here. * marks the point of attachment. C20 diacid = O=C(O)CCCCCCCCCCCCCCCCCCC(=O)*; γGlu = O=C(O)[C@H](CCC(=O)[*:2])N[*:1]

T1: human amylin receptor (amylin 3(a) receptor: human calcitonin receptor plus RAMP-3) (human, UniProt P30988 25-474; O60896 24-148, limits assumed)
T1 sequence (looked up) 1: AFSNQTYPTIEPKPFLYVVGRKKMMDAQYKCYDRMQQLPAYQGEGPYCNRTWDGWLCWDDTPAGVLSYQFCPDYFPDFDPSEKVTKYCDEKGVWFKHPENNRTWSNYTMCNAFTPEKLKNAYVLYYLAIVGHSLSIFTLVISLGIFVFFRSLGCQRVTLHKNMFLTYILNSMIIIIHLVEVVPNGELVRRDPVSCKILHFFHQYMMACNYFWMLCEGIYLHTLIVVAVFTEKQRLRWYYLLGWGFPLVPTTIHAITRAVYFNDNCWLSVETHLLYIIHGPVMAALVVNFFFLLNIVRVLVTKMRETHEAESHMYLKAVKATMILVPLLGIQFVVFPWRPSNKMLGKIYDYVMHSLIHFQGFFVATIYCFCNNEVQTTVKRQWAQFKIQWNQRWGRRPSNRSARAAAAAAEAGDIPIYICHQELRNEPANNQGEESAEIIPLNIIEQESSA
T1 sequence (looked up) 2: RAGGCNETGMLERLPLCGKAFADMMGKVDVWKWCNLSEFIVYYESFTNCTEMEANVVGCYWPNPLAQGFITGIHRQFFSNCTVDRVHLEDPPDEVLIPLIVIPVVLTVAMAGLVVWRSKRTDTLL

T2: human calcitonin receptor (human, UniProt P30988 25-474)
T2 sequence (looked up): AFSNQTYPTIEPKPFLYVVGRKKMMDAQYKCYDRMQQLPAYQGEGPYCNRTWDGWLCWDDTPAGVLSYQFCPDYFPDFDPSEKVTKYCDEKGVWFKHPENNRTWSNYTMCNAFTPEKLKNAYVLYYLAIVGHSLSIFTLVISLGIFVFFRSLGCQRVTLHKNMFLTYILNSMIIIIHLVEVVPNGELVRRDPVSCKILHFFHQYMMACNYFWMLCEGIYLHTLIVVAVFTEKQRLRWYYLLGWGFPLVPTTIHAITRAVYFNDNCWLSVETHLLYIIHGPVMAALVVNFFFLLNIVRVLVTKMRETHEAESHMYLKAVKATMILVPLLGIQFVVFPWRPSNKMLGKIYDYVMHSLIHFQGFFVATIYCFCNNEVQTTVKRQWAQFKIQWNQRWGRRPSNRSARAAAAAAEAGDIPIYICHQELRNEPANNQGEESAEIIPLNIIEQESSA

T3: human amylin receptor (amylin 3(a) receptor: human calcitonin receptor co-expressed with RAMP-3) (human, UniProt P30988 25-474; O60896 24-148)
T3 sequence (looked up) 1: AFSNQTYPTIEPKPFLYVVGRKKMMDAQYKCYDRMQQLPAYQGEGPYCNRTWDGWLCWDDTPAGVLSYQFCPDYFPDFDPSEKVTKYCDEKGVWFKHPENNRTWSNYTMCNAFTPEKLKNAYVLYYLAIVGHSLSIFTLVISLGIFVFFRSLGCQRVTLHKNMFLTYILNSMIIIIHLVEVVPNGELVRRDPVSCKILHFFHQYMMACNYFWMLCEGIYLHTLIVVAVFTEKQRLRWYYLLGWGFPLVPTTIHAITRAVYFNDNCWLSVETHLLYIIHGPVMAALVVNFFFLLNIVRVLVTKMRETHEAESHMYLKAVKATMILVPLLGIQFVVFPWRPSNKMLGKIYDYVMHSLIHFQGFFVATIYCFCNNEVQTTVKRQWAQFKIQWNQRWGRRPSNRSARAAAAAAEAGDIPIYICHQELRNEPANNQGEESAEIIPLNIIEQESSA
T3 sequence (looked up) 2: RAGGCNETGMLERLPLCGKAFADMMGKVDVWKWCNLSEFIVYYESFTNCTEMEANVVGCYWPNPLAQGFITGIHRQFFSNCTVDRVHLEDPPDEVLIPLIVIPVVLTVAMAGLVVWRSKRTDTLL

T4: human calcitonin receptor (human, UniProt P30988 25-474)
T4 sequence (looked up): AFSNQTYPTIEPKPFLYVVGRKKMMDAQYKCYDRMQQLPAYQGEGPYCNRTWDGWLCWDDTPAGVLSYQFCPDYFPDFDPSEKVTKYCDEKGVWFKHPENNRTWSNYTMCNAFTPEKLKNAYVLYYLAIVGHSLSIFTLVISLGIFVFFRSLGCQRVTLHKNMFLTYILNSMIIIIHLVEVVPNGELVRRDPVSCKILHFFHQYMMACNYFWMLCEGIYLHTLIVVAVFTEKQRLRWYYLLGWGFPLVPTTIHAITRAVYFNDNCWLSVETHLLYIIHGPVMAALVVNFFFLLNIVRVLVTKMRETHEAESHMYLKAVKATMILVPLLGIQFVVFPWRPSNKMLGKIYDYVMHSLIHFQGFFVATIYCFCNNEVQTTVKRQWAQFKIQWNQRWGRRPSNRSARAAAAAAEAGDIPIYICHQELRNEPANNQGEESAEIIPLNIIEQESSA


Legend:
[1] = target: T1, human amylin receptor (amylin 3(a) …); assay: cell-based or functional assay
[2] = target: T2, human calcitonin receptor; assay: cell-based or functional assay
[3] = target: T1, human amylin receptor (amylin 3(a) …); assay: SPA competition binding, displacement of 125I-rat amylin from membranes of BHK cells with human calcitonin receptor + RAMP-3 (Assay V)
How it was run: (§1)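 Membranes from BHK Amylin 3(a)/CRE-luc cells (35 ng/μL final) were mixed with SPA beads and test compounds in 50 mM Hepes pH 7.4 with 1 mM CaCl2, 5 mM MgCl₂, 0.1% OA and 0.02% Tween20. Incubation ran 120 min at 25° C with shaking; IC₅₀ came from one-site competition fitting.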

[4] = target: T3, human amylin receptor (amylin 3(a) …); assay: cell-based or functional assay
[5] = target: T4, human calcitonin receptor; assay: cell-based or functional assay; remark: listed apart in the source
[6] = target: T3, human amylin receptor (amylin 3(a) …); assay: SPA competition binding, membranes of Amylin 3(a)/CRE-luc BHK cells, displacement of 125I-rat amylin (Assay V)
How it was run: as §1

Binder	Ratio hCT/hAmylin funct. [1] [ratio]	hAmylin-R funct. EC50 [1] [nM]	hCTR funct. EC50 [2] [nM]	IC50 [3] [nM]	hAmylin-R funct. EC50 (pM), CRE-luciferase reporter in BHK amylin 3(a) receptor cells [4] [pM]	Ratio hCT/hAmylin funct. (hCTR EC50 against hAmylin-R EC50) [5]	hCTR funct. EC50 (pM), CRE-luciferase reporter in BHK calcitonin (a) receptor cells [5] [pM]	IC50 [6] [nM]
{C20 diacid-γGlu}-KCNTATCATQRLANFLRHSSPNFGAIPSSTNVGPETY-NH2 (disulfide 2-7; SMILES CC[C@H](C)[C@H](NC(=O)[C@H](C)NC(=O)CNC(=O)[C@H](Cc1ccccc1)NC(=O)[C@H](CC(N)=O)NC(=O)[C@@H]1CCCN1C(=O)[C@H](CO)NC(=O)[C@H](CO)NC(=O)[C@H](Cc1c[nH]cn1)NC(=O)[C@H](CCCNC(=N)N)NC(=O)[C@H](CC(C)C)NC(=O)[C@H](Cc1ccccc1)NC(=O)[C@H](CC(N)=O)NC(=O)[C@H](C)NC(=O)[C@H](CC(C)C)NC(=O)[C@H](CCCNC(=N)N)NC(=O)[C@H](CCC(N)=O)NC(=O)[C@@H](NC(=O)[C@H](C)NC(=O)[C@@H]1CSSC[C@H](NC(=O)[C@H](CCCCN)NC(=O)CC[C@H](NC(=O)CCCCCCCCCCCCCCCCCCC(=O)O)C(=O)O)C(=O)N[C@@H](CC(N)=O)C(=O)N[C@@H]([C@@H](C)O)C(=O)N[C@@H](C)C(=O)N[C@@H]([C@@H](C)O)C(=O)N1)[C@@H](C)O)C(=O)N1CCC[C@H]1C(=O)N[C@@H](CO)C(=O)N[C@@H](CO)C(=O)N[C@H](C(=O)N[C@@H](CC(N)=O)C(=O)N[C@H](C(=O)NCC(=O)N1CCC[C@H]1C(=O)N[C@@H](CCC(=O)O)C(=O)N[C@H](C(=O)N[C@@H](Cc1ccc(O)cc1)C(N)=O)[C@@H](C)O)C(C)C)[C@@H](C)O, Synthetic acylated analogue of human amylin; also called compound 29)	8.7	0.099	0.857	0.577	–	–	–	–
{C20 diacid-γGlu}-KCNTATCATQRLAEFLRHSSPNFGAIPSSTNVGPNTY-NH2 (disulfide 2-7; SMILES CC[C@H](C)[C@H](NC(=O)[C@H](C)NC(=O)CNC(=O)[C@H](Cc1ccccc1)NC(=O)[C@H](CC(N)=O)NC(=O)[C@@H]1CCCN1C(=O)[C@H](CO)NC(=O)[C@H](CO)NC(=O)[C@H](Cc1c[nH]cn1)NC(=O)[C@H](CCCNC(=N)N)NC(=O)[C@H](CC(C)C)NC(=O)[C@H](Cc1ccccc1)NC(=O)[C@H](CCC(=O)O)NC(=O)[C@H](C)NC(=O)[C@H](CC(C)C)NC(=O)[C@H](CCCNC(=N)N)NC(=O)[C@H](CCC(N)=O)NC(=O)[C@@H](NC(=O)[C@H](C)NC(=O)[C@@H]1CSSC[C@H](NC(=O)[C@H](CCCCN)NC(=O)CC[C@H](NC(=O)CCCCCCCCCCCCCCCCCCC(=O)O)C(=O)O)C(=O)N[C@@H](CC(N)=O)C(=O)N[C@@H]([C@@H](C)O)C(=O)N[C@@H](C)C(=O)N[C@@H]([C@@H](C)O)C(=O)N1)[C@@H](C)O)C(=O)N1CCC[C@H]1C(=O)N[C@@H](CO)C(=O)N[C@@H](CO)C(=O)N[C@H](C(=O)N[C@@H](CC(N)=O)C(=O)N[C@H](C(=O)NCC(=O)N1CCC[C@H]1C(=O)N[C@@H](CC(N)=O)C(=O)N[C@H](C(=O)N[C@@H](Cc1ccc(O)cc1)C(N)=O)[C@@H](C)O)C(C)C)[C@@H](C)O, Synthetic acylated analogue of human amylin; also called compound 32)	6.6	0.05	0.327	0.1	–	–	–	–
{C20 diacid-γGlu}-KCNTATCATQRLAEFLRHSSPNFGAIPSSTNVGHNTY-NH2 (disulfide 2-7; SMILES CC[C@H](C)[C@H](NC(=O)[C@H](C)NC(=O)CNC(=O)[C@H](Cc1ccccc1)NC(=O)[C@H](CC(N)=O)NC(=O)[C@@H]1CCCN1C(=O)[C@H](CO)NC(=O)[C@H](CO)NC(=O)[C@H](Cc1c[nH]cn1)NC(=O)[C@H](CCCNC(=N)N)NC(=O)[C@H](CC(C)C)NC(=O)[C@H](Cc1ccccc1)NC(=O)[C@H](CCC(=O)O)NC(=O)[C@H](C)NC(=O)[C@H](CC(C)C)NC(=O)[C@H](CCCNC(=N)N)NC(=O)[C@H](CCC(N)=O)NC(=O)[C@@H](NC(=O)[C@H](C)NC(=O)[C@@H]1CSSC[C@H](NC(=O)[C@H](CCCCN)NC(=O)CC[C@H](NC(=O)CCCCCCCCCCCCCCCCCCC(=O)O)C(=O)O)C(=O)N[C@@H](CC(N)=O)C(=O)N[C@@H]([C@@H](C)O)C(=O)N[C@@H](C)C(=O)N[C@@H]([C@@H](C)O)C(=O)N1)[C@@H](C)O)C(=O)N1CCC[C@H]1C(=O)N[C@@H](CO)C(=O)N[C@@H](CO)C(=O)N[C@H](C(=O)N[C@@H](CC(N)=O)C(=O)N[C@H](C(=O)NCC(=O)N[C@@H](Cc1c[nH]cn1)C(=O)N[C@@H](CC(N)=O)C(=O)N[C@H](C(=O)N[C@@H](Cc1ccc(O)cc1)C(N)=O)[C@@H](C)O)C(C)C)[C@@H](C)O, Synthetic acylated analogue of human amylin; also called compound 17)	8.8	0.268	2.35	0.878	–	–	–	–
{C20 diacid-γGlu-γGlu}-KCNTATCATQRLAEFLRHSSPNFGAIPSSTNVGSNTY-NH2 (disulfide 2-7; SMILES CC[C@H](C)[C@H](NC(=O)[C@H](C)NC(=O)CNC(=O)[C@H](Cc1ccccc1)NC(=O)[C@H](CC(N)=O)NC(=O)[C@@H]1CCCN1C(=O)[C@H](CO)NC(=O)[C@H](CO)NC(=O)[C@H](Cc1c[nH]cn1)NC(=O)[C@H](CCCNC(=N)N)NC(=O)[C@H](CC(C)C)NC(=O)[C@H](Cc1ccccc1)NC(=O)[C@H](CCC(=O)O)NC(=O)[C@H](C)NC(=O)[C@H](CC(C)C)NC(=O)[C@H](CCCNC(=N)N)NC(=O)[C@H](CCC(N)=O)NC(=O)[C@@H](NC(=O)[C@H](C)NC(=O)[C@@H]1CSSC[C@H](NC(=O)[C@H](CCCCN)NC(=O)CC[C@H](NC(=O)CC[C@H](NC(=O)CCCCCCCCCCCCCCCCCCC(=O)O)C(=O)O)C(=O)O)C(=O)N[C@@H](CC(N)=O)C(=O)N[C@@H]([C@@H](C)O)C(=O)N[C@@H](C)C(=O)N[C@@H]([C@@H](C)O)C(=O)N1)[C@@H](C)O)C(=O)N1CCC[C@H]1C(=O)N[C@@H](CO)C(=O)N[C@@H](CO)C(=O)N[C@H](C(=O)N[C@@H](CC(N)=O)C(=O)N[C@H](C(=O)NCC(=O)N[C@@H](CO)C(=O)N[C@@H](CC(N)=O)C(=O)N[C@H](C(=O)N[C@@H](Cc1ccc(O)cc1)C(N)=O)[C@@H](C)O)C(C)C)[C@@H](C)O, Synthetic acylated analogue of human amylin; also called compound 15)	8.9	0.386	3.43	0.597	–	–	–	–
K([γGlu-γGlu-C20 diacid])CNTATCATQRLAEFLRHSSPNFGAIPSSTNVGPETP-NH2 (disulfide 2-7 (inferred), Synthetic acylated analogue of human amylin)	–	–	–	–	132	0.8	102	0.533
K([γGlu-γGlu-C20 diacid])CNTATCATQRLAEFLRHSSPNFGAIPSSTNVGPNTF-NH2 (disulfide 2-7 (inferred), Synthetic acylated analogue of human amylin)	–	–	–	–	216	9.9	2140	0.152
K([γGlu-C20 diacid])CNTATCATQRLAEFLRHSSPNFGAIPSSTNVGSHTY-NH2 (disulfide 2-7 (inferred), Synthetic acylated analogue of human amylin)	–	–	–	–	425	13.1	5580	0.992
K([γGlu-γGlu-C20 diacid])CNTATCATQRLAEFLRHSSNNPGAILSSTNVGPETY-NH2 (disulfide 2-7 (inferred), Synthetic acylated analogue of human amylin)	–	–	–	–	5170	17.3	89600	1.19
